Measured values published in patent US20250171562A1.
One block for each binder: values may come before it.

Target: mixture of three Der p 2 specific recombinant human IgE clones H10, H12, P4E (human) (UniProt P01854)
Test: RBL-SX38 IgE displacement, FACS

Sequence of mixture of three Der p 2 specific recombinant human IgE clones H10, H12, P4E (human) (P01854 other isoform, or with tags, fused parts or gaps): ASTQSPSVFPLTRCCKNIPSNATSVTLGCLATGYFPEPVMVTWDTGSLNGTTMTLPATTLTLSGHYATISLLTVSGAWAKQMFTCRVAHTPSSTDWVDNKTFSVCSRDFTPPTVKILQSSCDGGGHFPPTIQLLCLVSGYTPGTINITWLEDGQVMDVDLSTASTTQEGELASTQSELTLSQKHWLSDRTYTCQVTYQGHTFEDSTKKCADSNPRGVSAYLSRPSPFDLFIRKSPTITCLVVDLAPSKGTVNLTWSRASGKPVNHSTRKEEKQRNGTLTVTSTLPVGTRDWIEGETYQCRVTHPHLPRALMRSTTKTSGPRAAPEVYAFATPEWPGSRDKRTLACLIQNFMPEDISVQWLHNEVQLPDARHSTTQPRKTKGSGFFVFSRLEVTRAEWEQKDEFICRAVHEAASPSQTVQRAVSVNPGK

- Max effect/effect 1 µM: 19%
B1: CIgG4F5A1(G4S)1 (Fc fusion)
chain 1: GPPCPPCPAPEFLGGPSVFLFPPKPKDTLMISRTPEVTCVVVDVSQEDPEVQFNWYVDGVEVHNAKTKPREEQFNSTYRVVSVLTVLHQDWLNGKEYKCKVSNKGLPSSIEKTISKAKGQPREPQVYTLPPCQEEMTKNQVSLWCLVKGFYPSDIAVEWESNGQPENNYKTTPPVLDSDGSFFLYSRLTVDKSRWQEGNVFSCSVMHEALHNHYTQKSLSLSLGKGGGGSDVQLQESGGGLVQPGGSLRLSCAASGSIFSIDIMGWYRQAPGKQRELVATMPEGNYINYADSVKGRLTLSRDKGKNTVYLQLNSLKPEDTAVYYCYGFGVREGRGNVYWGQGTQVTVS
chain 2: GPPCPPCPAPEFLGGPSVFLFPPKPKDTLMISRTPEVTCVVVDVSQEDPEVQFNWYVDGVEVHNAKTKPREEQFNSTYRVVSVLTVLHQDWLNGKEYKCKVSNKGLPSSIEKTISKAKGQPREPQVCTLPPSQEEMTKNQVSLSCAVKGFYPSDIAVEWESNGQPENNYKTTPPVLDSDGSFFLVSRLTVDKSRWQEGNVFSCSVMHEALHNHYTQKSLSLSLGKGGGGSEVQLLESGGGLVQPGGSLRLSCAASGFTFGNYDMAWVRQAPGKRPEWVSSIDTGGDITHYADSVKGRFTISRDNAKNTLYLQMNSLRPEDTAVYWCATDEEYALGPNEFDYYGQGTLVTVSS

- Max effect/effect 1 µM: 25%
B2: CIgG4F5A1(G4S)2 (Fc fusion)
chain 1: GPPCPPCPAPEFLGGPSVFLFPPKPKDTLMISRTPEVTCVVVDVSQEDPEVQFNWYVDGVEVHNAKTKPREEQFNSTYRVVSVLTVLHQDWLNGKEYKCKVSNKGLPSSIEKTISKAKGQPREPQVYTLPPCQEEMTKNQVSLWCLVKGFYPSDIAVEWESNGQPENNYKTTPPVLDSDGSFFLYSRLTVDKSRWQEGNVFSCSVMHEALHNHYTQKSLSLSLGKGGGGSGGGGSDVQLQESGGGLVQPGGSLRLSCAASGSIFSIDIMGWYRQAPGKQRELVATMPEGNYINYADSVKGRLTLSRDKGKNTVYLQLNSLKPEDTAVYYCYGFGVREGRGNVYWGQGTQVTVS
chain 2: GPPCPPCPAPEFLGGPSVFLFPPKPKDTLMISRTPEVTCVVVDVSQEDPEVQFNWYVDGVEVHNAKTKPREEQFNSTYRVVSVLTVLHQDWLNGKEYKCKVSNKGLPSSIEKTISKAKGQPREPQVCTLPPSQEEMTKNQVSLSCAVKGFYPSDIAVEWESNGQPENNYKTTPPVLDSDGSFFLVSRLTVDKSRWQEGNVFSCSVMHEALHNHYTQKSLSLSLGKGGGGSGGGGSEVQLLESGGGLVQPGGSLRLSCAASGFTFGNYDMAWVRQAPGKRPEWVSSIDTGGDITHYADSVKGRFTISRDNAKNTLYLQMNSLRPEDTAVYWCATDEEYALGPNEFDYYGQGTLVTVSS

- Max effect/effect 1 µM: 27%
B3: CIgG4F5A1(G4S)3 (Fc fusion)
chain 1: GPPCPPCPAPEFLGGPSVFLFPPKPKDTLMISRTPEVTCVVVDVSQEDPEVQFNWYVDGVEVHNAKTKPREEQFNSTYRVVSVLTVLHQDWLNGKEYKCKVSNKGLPSSIEKTISKAKGQPREPQVYTLPPCQEEMTKNQVSLWCLVKGFYPSDIAVEWESNGQPENNYKTTPPVLDSDGSFFLYSRLTVDKSRWQEGNVFSCSVMHEALHNHYTQKSLSLSLGKGGGGSGGGGSGGGGSDVQLQESGGGLVQPGGSLRLSCAASGSIFSIDIMGWYRQAPGKQRELVATMPEGNYINYADSVKGRLTLSRDKGKNTVYLQLNSLKPEDTAVYYCYGFGVREGRGNVYWGQGTQVTVS
chain 2: GPPCPPCPAPEFLGGPSVFLFPPKPKDTLMISRTPEVTCVVVDVSQEDPEVQFNWYVDGVEVHNAKTKPREEQFNSTYRVVSVLTVLHQDWLNGKEYKCKVSNKGLPSSIEKTISKAKGQPREPQVCTLPPSQEEMTKNQVSLSCAVKGFYPSDIAVEWESNGQPENNYKTTPPVLDSDGSFFLVSRLTVDKSRWQEGNVFSCSVMHEALHNHYTQKSLSLSLGKGGGGSGGGGSGGGGSEVQLLESGGGLVQPGGSLRLSCAASGFTFGNYDMAWVRQAPGKRPEWVSSIDTGGDITHYADSVKGRFTISRDNAKNTLYLQMNSLRPEDTAVYWCATDEEYALGPNEFDYYGQGTLVTVSS

- Max effect/effect 1 µM: 0%
B4: CIgG4F5A1(RS) (Fc fusion)
chain 1: GPPCPPCPAPEFLGGPSVFLFPPKPKDTLMISRTPEVTCVVVDVSQEDPEVQFNWYVDGVEVHNAKTKPREEQFNSTYRVVSVLTVLHQDWLNGKEYKCKVSNKGLPSSIEKTISKAKGQPREPQVYTLPPCQEEMTKNQVSLWCLVKGFYPSDIAVEWESNGQPENNYKTTPPVLDSDGSFFLYSRLTVDKSRWQEGNVFSCSVMHEALHNHYTQKSLSLSLGKRSDVQLQESGGGLVQPGGSLRLSCAASGSIFSIDIMGWYRQAPGKQRELVATMPEGNYINYADSVKGRLTLSRDKGKNTVYLQLNSLKPEDTAVYYCYGFGVREGRGNVYWGQGTQVTVS
chain 2: GPPCPPCPAPEFLGGPSVFLFPPKPKDTLMISRTPEVTCVVVDVSQEDPEVQFNWYVDGVEVHNAKTKPREEQFNSTYRVVSVLTVLHQDWLNGKEYKCKVSNKGLPSSIEKTISKAKGQPREPQVCTLPPSQEEMTKNQVSLSCAVKGFYPSDIAVEWESNGQPENNYKTTPPVLDSDGSFFLVSRLTVDKSRWQEGNVFSCSVMHEALHNHYTQKSLSLSLGKRSEVQLLESGGGLVQPGGSLRLSCAASGFTFGNYDMAWVRQAPGKRPEWVSSIDTGGDITHYADSVKGRFTISRDNAKNTLYLQMNSLRPEDTAVYWCATDEEYALGPNEFDYYGQGTLVTVSS

- EC50: 21.2 nM
- Max effect/effect 1 µM: 75%
B5: NIgG4F5A1(G4S)2 (Fc fusion)
chain 1: DVQLQESGGGLVQPGGSLRLSCAASGSIFSIDIMGWYRQAPGKQRELVATMPEGNYINYADSVKGRLTLSRDKGKNTVYLQLNSLKPEDTAVYYCYGFGVREGRGNVYWGQGTQVTVSGGGGSGGGGSGPPCPPCPAPEFLGGPSVFLFPPKPKDTLMISRTPEVTCVVVDVSQEDPEVQFNWYVDGVEVHNAKTKPREEQFNSTYRVVSVLTVLHQDWLNGKEYKCKVSNKGLPSSIEKTISKAKGQPREPQVYTLPPCQEEMTKNQVSLWCLVKGFYPSDIAVEWESNGQPENNYKTTPPVLDSDGSFFLYSRLTVDKSRWQEGNVFSCSVMHEALHNHYTQKSLSLSLGK
chain 2: EVQLLESGGGLVQPGGSLRLSCAASGFTFGNYDMAWVRQAPGKRPEWVSSIDTGGDITHYADSVKGRFTISRDNAKNTLYLQMNSLRPEDTAVYWCATDEEYALGPNEFDYYGQGTLVTVSSGGGGSGGGGSGPPCPPCPAPEFLGGPSVFLFPPKPKDTLMISRTPEVTCVVVDVSQEDPEVQFNWYVDGVEVHNAKTKPREEQFNSTYRVVSVLTVLHQDWLNGKEYKCKVSNKGLPSSIEKTISKAKGQPREPQVCTLPPSQEEMTKNQVSLSCAVKGFYPSDIAVEWESNGQPENNYKTTPPVLDSDGSFFLVSRLTVDKSRWQEGNVFSCSVMHEALHNHYTQKSLSLSLGK

- EC50: 34.8 nM
- Max effect/effect 1 µM: 48%
B6: NIgG4F5A1(G4S)3 (Fc fusion)
chain 1: DVQLQESGGGLVQPGGSLRLSCAASGSIFSIDIMGWYRQAPGKQRELVATMPEGNYINYADSVKGRLTLSRDKGKNTVYLQLNSLKPEDTAVYYCYGFGVREGRGNVYWGQGTQVTVSGGGGSGGGGSGGGGSGPPCPPCPAPEFLGGPSVFLFPPKPKDTLMISRTPEVTCVVVDVSQEDPEVQFNWYVDGVEVHNAKTKPREEQFNSTYRVVSVLTVLHQDWLNGKEYKCKVSNKGLPSSIEKTISKAKGQPREPQVYTLPPCQEEMTKNQVSLWCLVKGFYPSDIAVEWESNGQPENNYKTTPPVLDSDGSFFLYSRLTVDKSRWQEGNVFSCSVMHEALHNHYTQKSLSLSLGK
chain 2: EVQLLESGGGLVQPGGSLRLSCAASGFTFGNYDMAWVRQAPGKRPEWVSSIDTGGDITHYADSVKGRFTISRDNAKNTLYLQMNSLRPEDTAVYWCATDEEYALGPNEFDYYGQGTLVTVSSGGGGSGGGGSGGGGSGPPCPPCPAPEFLGGPSVFLFPPKPKDTLMISRTPEVTCVVVDVSQEDPEVQFNWYVDGVEVHNAKTKPREEQFNSTYRVVSVLTVLHQDWLNGKEYKCKVSNKGLPSSIEKTISKAKGQPREPQVCTLPPSQEEMTKNQVSLSCAVKGFYPSDIAVEWESNGQPENNYKTTPPVLDSDGSFFLVSRLTVDKSRWQEGNVFSCSVMHEALHNHYTQKSLSLSLGK
